The target of the data set is AjFoxO (rAjFoxO) (Apostichopus japonicus, UniProt A0A2G8KG36 1-567). Briefly: EMSA.

B1: AjATG4 WT probe (dsDNA)
DNA 1: TTTACGGCGCCTGTTTACGTCATCAACC
DNA 2: GGTTGATGACGTAAACAGGCGCCGTAAA
Take B1: the binding result was “binds”.

B2: AjATG4 Mut probe (dsDNA)
DNA 1: TTTACGGCGCGACAAAACGTCATCAACC
DNA 2: GGTTGATGACGTTTTGTCGCGCCGTAAA
For the molecule B2, the binding result is reported as “no binding”.

B3: AjLC3 WT probe (dsDNA)
DNA 1: ATATCCTTTTGTCTGTTTTTCGGAAAG
DNA 2: CTTTCCGAAAAACAGACAAAAGGATAT
With B3, the binding result is “binds”.

B4: AjLC3 Mut probe (dsDNA)
DNA 1: ATATCCTTTTGTGACACCTTCGGAAAG
DNA 2: CTTTCCGAAGGTGTCACAAAAGGATAT
As for B4, the binding result is “no binding”.

The values are drawn from publication PMC11705696.
